The source of these data is article PMC2911289.

Broadly, the stoichiometry N is a count of units in the complex or per binding partner.

The target of assay [1] is VEGF-B(10–108) (fusion protein) with thioredoxin, His tag and S tag (human). The assay can be described thus: SDS-PAGE and Western blot.
Assay [2] addresses VEGF-B(10–108), minimal receptor-binding domain of vascular endothelial growth factor-B (untagged dimer) (human). The assay can be described thus: crystal structure.

As for “VEGF-B(10–108) (fusion protein) with thioredoxin, His tag and S tag (domain or fragment)”, the stoichiometry N in assay [1] stood at 2. Regarding “VEGF-B(10–108), minimal receptor-binding domain of vascular endothelial growth factor-B (untagged dimer) (domain or fragment)”, in assay [2], the stoichiometry N was 2.
